{
  "source": "patent US20130097729A1",
  "target": "whole pea aphid BBMV proteins",
  "assay": "pull-down with whole pea aphid BBMV, anti-GFP western blot, ImageJ band intensities",
  "data": [
    {"substance": "GBP3.1(R8A)EGFP (peptide)", "values": [
      {"measurement": "fold increase in BBMV binding efficiency against GBP3.1-EGFP", "value": 5, "unit": "fold"}
    ]}
  ]
}
